Measurements from the nanobody polyreactivity screen of Harvey et al. (2022).

Assay: yeast display, Sf9 membrane polyspecificity reagent, FACS + sequencing; frameworks hold sequencing errors
Summary of the method: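 Galactose-induced (36–48 hours) yeast carrying a synthetic nanobody display library were exposed to 10% biotinylated, detergent-solubilized Sf9 membrane reagent at 4 °C for 1 hour. FACS followed streptavidin microbead enrichment, using low and high (top ~1%) gates for expression (anti-HA) and reagent binding (streptavidin). Colony PCR, MiSeq 2 × 250 sequencing and CDR-length filtering followed. Labels for polyreactivity reflect the gate of origin.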

| Sequence | polyreactivity (PSR sort gate) |
| --- | --- |
| QVQLVESGGGLVQAGGSLRLSWAASGFIFGFYAMGWYRQAPGKERELVADITSSGGSTYYADSVKGRFTISRDNAKNTVYLQMNSLKQEDTAVYYCAADGWLHNFYPGTGLDYWGQGTQVTVSS | low polyreactivity |
| QVQLVESGGGLVQAGGSLRLSWAASGFTFTPYAMGWYRPAPGKEREFVAAISQRGTSTFYADSVKGRFTISRDNAKHTVYLQMNSLKPEDTAVYYCAKPYRQYTSAYYNTYNYWGQGTEVTVSS | high polyreactivity |
| QVQLVESGGGLVQAGGSLRLSWAASGLIFSSNAMGWYRQAPGKERDLVAAITRSGGSTYYADSVKGRFTISRDNAKNTVYLQMNSLKPEDTAVYYCAARYSQRGITFYYWGQGTQVTVSS | high polyreactivity |
| QVQLVESGGGLVQAGGSLRLSWAASGRIFVLNAMGSYRQAPGKERELVAAISTGASTNYADSVKGRFTISRDNAKNTVYLKMNSLTPEATAVYYCAAAPGSSGARTSYILAYDYWGLGTQVTVSS | low polyreactivity |
| QVQLVESGGGLVQAGGSLRLSWAASGSIFFYYTIGWYRQAPGKERELVAAISVGGSTYYADSVKGRFTISRDNAKNTVYLQMNSLKPEDTAVYYSNAVPAKGFVTVVRYYYWGQGTQVTVSS | low polyreactivity |
| QVQLVESGGGLVQAGGSLRLSWAASGSTFRLYAMGWYRQAPGKERELVAAITWSGGSTYYADSVKGRFTISRDNAKNTVYLQMNSLKPEDTAVYYCAAHRIGYYLRVSYRGKYDHWGQGTQVTVSS | low polyreactivity |
| QVQLVESGGGLVQAGGSLRLSWAASGSTLSLYAMGWYRQAPGKERELVAAITSSGGTYYADSVKGRFTISRDNAKNTVYLQMNSLKPEVTAVYYCNAYAKDARSYGYHRVNYWGQGTQVTVSS | high polyreactivity |
| QVQLVESGGGLVQAGGSLRLTCAACGRIFNKYAMVWYIQAPGKERELVAAINGGGSTNYADSVKGRFTISRDNAKNTDYLQMNSLKAEDTAVYYCSTTPDGEGGYWGQGTQVTVSS | low polyreactivity |
| QVQLVESGGGLVQAGGSLRLTCAACGRTFYWYSMGWYRKAPGKERELVATITRTGTRTYYADSVKGRFTISRDNAKNTVYLQMNSLKPEDTAVYYCAAGVIRYGGKEEYYYWGLGTQVTVSS | high polyreactivity |
| QVQLVESGGGLVQAGGSLRLTCAASARIFGYYVMGWSRQAPGKETELVAAIRSSADSTYYADSVKGRFTISRDNAKNTVYLQMNSLKPEDTAVYYCAAQSPAYYTKSYWGQGTQVTVSS | low polyreactivity |
| QVQLVESGGGLVQAGGSLRLTCAASGFIFEHYAMGWYRQAPGKERELVARISWRGGSTYYADSVKGRFTISRDNAKNTVYFQMNSLKPEDTAVYYCNAQEVVYFGYYPSDYWGQGTQVTVSS | low polyreactivity |
| QVQLVESGGGLVQAGGSLRLTCAASGFIFQIYAMGWYRQAPGKERELVAAISSGGSTNYADSVKGRFTISRDNAKNTVYLQMNSLKPEDTAVYYCAAATQYWYFYSFKDKSGFRGYYWGQGTQVTVSS | high polyreactivity |
| QVQLVESGGGLVQAGGSLRLTCAASGFIFRAYAKGWYRQEPGKERELVAAISRSVSRTYYADSVKGRFTISRDNAKNTVYLQMNSLKPEDTAVYYCAADGQLHMDYWGQGTQVTVSS | high polyreactivity |
| QVQLVESGGGLVQAGGSLRLTCAASGFIFYAYTMRCYRQAPGKERELVAAISRSGGRTYYADSVKGRFTISRDNAKNTVYLQMNRLKPEDTAVYYCAAEYRGVPRVVVDYDYWGQGTQVTVSS | high polyreactivity |
| QVQLVESGGGLVQAGGSLRLTCAASGFIVKYNAMGWYRQAPGKERELVAAITSTGSTNYADSVKGRFTISRDNAKNTVYFQMISLKPEDNAVYYCAAYWRSRNRFNWGQGTQVTVTS | high polyreactivity |
| QVQLVESGGGLVQAGGSLRLTCAASGFIYYYNAMGWYRQAPGKERQLVAAISASGDRTYYADSVKGRFTISRDNAKNTVYLQMNSLKPEDTAVYYCAARSQGARYSSRRRFGDYWGQGTQVTVSS | high polyreactivity |

| Sequence | polyreactivity (PSR sort gate) |
| --- | --- |
| QVQLVESGGGLVQAGGSLRLTCAASGFTFARNTMGWYRQAPGKERELVAAISKNGGSTYYADSVKGRFTISRDNAKNTVYLQMNSLTPEDTAVYYCNTYPSKVGRYSVKDYEYGYWGQGTQVTVSS | high polyreactivity |
| QVQLVESGGGLVQAGGSLRLTCAASGFTFDQYAMGWYRQEPGKERELVAAISFDGSSTYYADSVKGRFTISRDNAKNTVYLQMNSLKPEDTAVYYCNAAVRGYSSLYRYGYWGQGTQVTVSS | high polyreactivity |
| QVQLVESGGGLVQAGGSLRLTCAASGFTFFYNAMGWYRQAPGKERELVAAISRGGGRTYYADSVKGRFTISRDNAKNTVYLQMNSLKPEDTAVYYCAKEYGGTRGRKLDYWGQGTQVTVSS | high polyreactivity |
| QVQLVESGGGLVQAGGSLRLTCAASGFTFGEYAMGWYRQAPGKERELVAVITSGGGRTYYADSVKGRFTISRDNAKNNVYLEMNSLNPEDTAAYYCAAQPKPQLERKDDYWGQGTQVTVSS | high polyreactivity |
| QVQLVESGGGLVQAGGSLRLTCAASGFTFRSYAMGWYRQAPGKERELVADISIRGGGTYYADSVKGRFTISRDNAKNTVYLQRNSLKPEDTAVYYCAAERYKPFLWPRYDYWGQGTQVTVSS | low polyreactivity |
| QVQLVESGGGLVQAGGSLRLTCAASGFTFYRNTMGWYRQAPGKERELVAAITQRGGSTYYADSVKGRFTISRDNAKNTVYLQMNSLKPEDTAVYYCNRDVKVLYASSHSPYGYDHWGQGTQVTVSS | low polyreactivity |
| QVQLVESGGGLVQAGGSLRLTCAASGGIFQFYDMGWYRQAPGKERELVAAITSSGGSTYADSVKGRFTISRDNAKYTVYLQMNSLKPEVTAVYYCAASLVWEYAPGWRFKYGYWGQGTQVTVSS | high polyreactivity |
| QVQLVESGGGLVQAGGSLRLTCAASGGTISVYDMGWYRQAHGNERELVAAIRDRGVSTYYADSVKGRFTISRDTAKNTVYLQMNSLKPEDTAVYYCAAEYFDGSTYSYYYWGQGTQVTVSS | high polyreactivity |
| QVQLVESGGGLVQAGGSLRLTCAASGIIFKQNVKGWYRKAPGKESELVAAITSRDGTTYYADSVKGRFTISRDNAKNTVYLQMNSLKPEDTAVYYCATLFKSGSYKYGYWGQGTQVTVSS | high polyreactivity |
| QVQLVESGGGLVQAGGSLRLTCAASGIIFRGYVMAWYRQAPGKERELVAAISTSGGRTSYADSVKGRFTISRDNAKNTVYLQMNSLKPEDTAVYYCKTRVTGNRLGYYYWGQGTQVTVSS | high polyreactivity |
| QVQLVESGGGLVQAGGSLRLTCAASGITFGRNVMGWYRQAPGKEMELVATISGSAGYTYYADSVKGRFTISRDYAKNTVYFQMNSLKPEDTSVYYCAARQRKARQIVLLDYWGQGTKVTVSS | high polyreactivity |
| QVQLVESGGGLVQAGGSLRLTCAASGITFGSYAMGWYRQAPGKERELVAAITWRDGSTYYADSVKGRFTISRDNAKNTVYLQMYSLKPEDTAVYYCAAYLGLRYVGDVSDTWRYDYWGQGTQVTVSS | low polyreactivity |
| QVQLVESGGGLVQAGGSLRLTCAASGITFLHYAMGWYRQAPGKERELVATISRRGGSTYYADSVKGRFTNSRDNAKYTVYLQLNSLKPEDTAVYYCAADSYYLRHYSAGYYFKRYYWGQGTQVTVSS | high polyreactivity |
| QVQLVESGGGLVQAGGSLRLTCAASGITFTQNAMGWYRQAPGKERELVAAISRSGTITYYADSVKGRFTISRDHAKNTVYLQMNSLKPEDTAVYYCNKLRPQRSWEYDYWGQGTQVTVSS | high polyreactivity |
| QVQLVESGGGLVQAGGSLRLTCAASGITFYDNAMGWYRQAPGKERELVAGISYDGDSTYADSVKGRFTNSRDNAKNTVYLQMNSLKPEDTAVYYCAADSSGEYPGGYWGQGTQVTVSS | low polyreactivity |
